The test system of this assay is hippocampal proteins. Briefly: DIA quantification proteomics, hippocampus of Mdga2+/- vs WT mice. The following applies: S3 Table, downregulated DEPs; for log2FC: Mdga2+/- vs WT mouse hippocampus (HET-HIP-VS-WT-HIP), SE, pvalue and adj_pvalue in own columns c3-c5; for Class: regulation class of the protein, HET-HIP-VS-WT-HIP. Set-up: species or system mouse. As for the experimental part:
The hippocampus of 1.5–2-month-old Mdga2^ +/− male mice and their WT littermate controls was collected and sent to the BGI company for DIA quantification proteomics and data analysis. Briefly, samples were lysed and sonicated. After centrifugation, the supernatant was taken for quantification. Equal amounts of proteins (100 μg) per sample were subjected to trypsin enzymatic hydrolysis. After dryness, 10 μg enzymatic peptides per sample were separated by high-pH fractionation into a total of 10 fractions using high-performance liquid chromatography (HPLC) and freeze-dried. Data-dependent acquisition (DDA) fractions and DIA samples were analyzed by nano-LC–MS/MS. DDA data was identified by Andromeda search engine within MaxQuant. Identified results were used by Spectronaut^TM for spectral library construction. For DIA data, Spectronaut^TM used the constructed spectral library information to complete deconvolution and extraction, and used the mProphet algorithm to complete analytical quality control for obtaining reliable quantitative results. The mass spectrometry proteomics data have been deposited to the ProteomeXchange Consortium via the PRIDE [62] partner repository with the dataset identifier PXD050810. DEPs between comparison groups were identified based on the quantitative results, using the fold change >1.1 and p-value <0.05 as the criteria. After retrieval from the UniProtKB database, identified DEPs were processed for GO analysis by using DAVID (https://david.ncifcrf.gov/home.jsp) and Metascape database (https://metascape.org/gp/index.html).

B1: sp¦Q8K0L9¦ZBT20_MOUSE (protein, UniProt Q8K0L9 1-741, looked up)
Zinc finger and BTB …: MLERKKPKTAENQKASEENEITQPGGSSAKPALPCLNFEAVLSPAPALIHSTHSLTNSHAHTGSSDCDISCKGMTERIHSINLHNFSNSVLETLNEQRNRGHFCDVTVRIHGSMLRAHRCVLAAGSPFFQDKLLLGYSDIEIPSVVSVQSVQKLIDFMYSGVLRVSQSEALQILTAASILQIKTVIDECTRIVSQNVGDVFPGIQDSGQDTPRGTPESGTSGQSSDTESGYLQSHPQHSVDRIYSALYACSMQNGSGERSFYSGAVVSHHETALGLPRDHHMEDPSWITRIHERSQQMERYLSTTPETTHCRKQPRPVRIQTLVGNIHIKQEMEDDYDYYGQQRVQILERNESEECTEDTDQAEGTESEPKGESFDSGVSSSIGTEPDSVEQQFGAAAPRDGQAEPAQPEQAAEAPAESSAQPNQLEPGASSPERSNESEMDNTVITVSNSSDKGVLQQPSVNTSIGQPLPSTQLYLRQTETLTSNLRMPLTLTSNTQVIGTAGNTYLPALFTTQPAGSGPKPFLFSLPQPLTGQQTQFVTVSQPGLSTFTAQLPAPQPLASSAGHSTASGQGDKKPYECTLCNKTFTAKQNYVKHMFVHTGEKPHQCSICWRSFSLKDYLIKHMVTHTGVRAYQCSICNKRFTQKSSLNVHMRLHRGEKSYECYICKKKFSHKTLLERHVALHSASNGTPPAGTPPGARAGPPGVVACTEGTTYVCSVCPAKFDQIEQFNDHMRMHVSDG
Consider B1, for which the log2FC is recorded as -1.342 and the Class entry is given as “Down”.

B2: sp¦Q9JJR9¦NRIP3_MOUSE (protein, UniProt Q9JJR9 1-240, looked up)
Nuclear receptor-interacting …: MFYSGLLTEGGRKETDMREAASLRQQRRMKQAVQFIHKDSADLLPLDGLKKLGSSKDTQPHNILQRRLMETNLSKLRSTRVPWASKTNKFNQAKSEGLKKCEDEDMILVSCQCAGKDVKALVDTGCQYNLISSACVDRLGLKDHVKSHKHEGEKLSLPRHLKVVGQIEHLMITVGSLRLDCQAAVVDDNEKSLSLGLQTLRSLKCIINLDKHRLIVGKTDKEEIPFVETVSVNDDNTSEA
Regarding B2, the log2FC was -1.366 and the Class entry is reported as “Down”.

B3: sp¦P0C7L0¦WIPF3_MOUSE (protein, UniProt P0C7L0 1-485, looked up)
WAS/WASL-interacting protein …: MPVPPPPPPPPPPPPPPPPPLGAPPPPPLGAPPPPPPPGPPVSTDTPSLRKPDLKGRSALLADIQQGTRLRKVTQINDRSAPQIEGSKGTSKEGGAAGSNARGGNTPPALGDLFAGGFPVLRPAGQRDVSGGKSGQGPGSRAPSPRLPIKAISGPLPAPASPRLGNASETHSSARPVPPRPSVPAPPPPTPPPPPPPPLPPASPIKAQLVSPPAPPTKVNPSVVPPPLPCAPPLPPPPPTPPPLPPASALSDKAVRPQLAPLHLPPIPPPLPLLPPCGYPGLHSEPNSPAQEVREPPAPPPPPPPPPPPPLPTYASCSSRTAVAPPPLPGANNSGSETPPPLPPKSPSFQTQKALPTPPGAPGPQAILQKKRRGPGTSGGKLNPPPAPPARSPTTELSSKSQQPGGQLRNGGQHAIDDFESKFTFHSMEDFPPPDEYKPCQKIYPSKVPRSRTPGSWLQAEAAGQSSDDIKSRNSQLSLKALPVR
With B3, the log2FC is -1.266 and the Class entry is “Down”.

B4: sp¦O35449¦PRRT1_MOUSE (protein, UniProt O35449 1-306, looked up)
Proline-rich transmembrane …: MSSEKSGLPDSVPHTSPPPYNAPQPPAEPPIPPPQTAPSSHHHHHHHYHQSGTATLPRLGAGGLASAAASAQRGPSSSATLPRPPHHAPPGPAAGAPPPGCATLPRMPPDPYLQETRFEGPLPPPPPAAAAPPPPAPAPTAQAPGFVVPTHAGAVGTLPLGGYVAPGYPLQLQPCTAYVPVYPVGTPYAGGTPGGPGVTSTLPPPPQGPGLALLEPRRPPHDYMPIAVLTTICCFWPTGIIAIFKAVQVRTALARGDLVSAEIASREARNFSFISLAVGIAAMVLCTILTVVIIIAAQHHENYWDP
As to B4, the log2FC was -1.273 and the Class result is recorded as “Down”.

B5: sp¦Q6NWV3¦IF122_MOUSE (protein, UniProt Q6NWV3 1-1182, looked up)
Intraflagellar transport …: MRAVLTWRDKAEQCIYDLAFKPDGTQLILAAGNRLLVYDTSDGTLLQPLKGHKDTVYCVAYAKDGKRFASGSADKSIIIWTSKLEGILKYTHNDSIQCVSYNPVTHQLASCSSSDFGLWSPEQKSVSKHKSSSKITCCSWTNDGQYLALGMANGIISIRNKNGEEKVKIERPGGSLSPIWSICWNPSREEHNDILAVADWGQKLSFYQLSGKQIGKDRPLNFDPCCISYFTKGEYILVGGSDKQVSLFTKDGVRLGTVGEQNSWVWTCRVKPDSNYVVVGCQDGTISFYQLIFSTVHGLYKDRYAYRDSMTDVIVQHLITEQKVRIKCRELVKKIAIYKNRLAIQLPEKILIYELYSEDSTDMHYRVKEKIVKKFECNLLVVCADHIILCQEKRLQCLSFSGVKEREWQMESLIRYIKVIGGPAGREGLLVGLKNGQILKIFVDNLFAIVLLKQATAVRCLDMSASRNKLAVVDENDTCLVYDIHTKELLFQEPNANSVAWNTQCEDMLCFSGGGYLNIKASTFPVHQQKLQGFVVGYNGSKIFCLHVFSMSAVEVPQSAPMYQYLDRKMFKEAYQIACLGVTDADWRELAMEALEGLEFETARKAFTRVQDLRYLELISSIEERKKRGETNNDLFLADVFSYQGKFHEAAKLYKRSGHENLALDMYTDLCMFEYAKDFLGSGDPKETKMLITKQADWARNINEPKAAVEMYISAGEHAKAIEISGSHGWVDMLIDIARKLDKAEREPLLMCACYFKKLDSPGYAAETYLKIGDLKSLVQLYVDTKRWDEAFALGEKHPEFKDDVYVPYAQWLAENDRFEEAQKAFHKAGRQGEAVRVLEQLTHNAVVESRFNDAAYYYWMLSMQCLDMAQDPAQKDAMLDKFHHFQHLAELYHGYQTIHRYTEEPFSFDLPETLFNISKFLLHSLTKATPLGISKVNTLFTLAKQSKALGAYKLARHAYDKLRGLQIPARIQKSIELGTLTIRSKPFHDSEELVPLCYRCSTNNPLLNNLGNVCINCRQPFIFSASSYEVLHLVEFYLEEGITDEEAVALIDLEAPRHKREGKWRETSSNNSQTLKLDETMDSIGEDDPFTAKLSFEQGSSEFVPVVVNRSVLRSMSRRDVLIKRWPPPLQWQYFRSLLPDASITMCPSCFQMFHSEDYELLVLQHACCPYCRRRIDDTGP
On to B5, for which the log2FC is given as -1.266 and the Class entry is “Down”.

B6: sp¦Q3UHB1¦NT5D3_MOUSE (protein, UniProt Q3UHB1 1-546, looked up)
5'-nucleotidase …: MATVAAAARGAGARAAAGLRSCGGAVARERPRSGCARRLCSAPAAPAAVDMKSYLWARYHEAKRSTDELVPSIMNNLLNPDAIFSNNEMSLSDIEIYGFDYDYTLVFYSKHLHTLIFNAARDLLINEHRYPVEIRKYEYDPSFAIRGLHYDVQRAVLMKIDAFHYIQMGTVYRGLSVVPDEEVIDMYEGSHVPLEQMSDFYGKSSHGNTMKQFMDIFSLPEMTLLSCVNEHFLKNNIDYEPVHLYKDVKDSIRDVHIKGIMYRAIEADIEKYICYADQTRAVLAKLAAHGKKMFLITNSPSSFVDKGMRYIVGKDWRDLFDVVIVQAEKPNFFNDKRRPFRKVNEKGVLLWDKIHKLQKGQIYKQGNLYEFLKLTGWRGSKVLYFGDHIYSDLADLTLKHGWRTGAIIPELRSELRIMNTEQYIQTMTWLQTLTGLLEQMQVHRDAESQLVLQEWKKERKEMREMTKSFFNAQFGSLFRTDQNPTYFLRRLSRFADIYMASLSCLLNYDVHHTFYPRRTPLQHELPAWSDSPSAFKAPLLQEAQAK
As to B6, the log2FC is -1.2606 and the Class entry was “Down”.

B7: sp¦A3KGB4¦TBC8B_MOUSE (protein, UniProt A3KGB4 1-1114, looked up)
TBC1 domain family member 8B: MWLKPEEVLLKNALKLWLMERSNEYFVLQRRRGYGEEGGGGLTGLLVGTLDSVLDSTAKVAPFRILHQTPDSQVYLSIACGANREEITKHWDWLEQNIMKTLSVFDSNEDITNFVQGKIRGLIAEEGKQSFAKEDDPEKFREALLKFEKSFGLPEQEKLVTYYSCSYWRGRVPCQGWLYLSTNFLSFYSFLLGSEIKLIISWDAISKLEKTSTVILTESIHVCSQGENHYFSMFLHINETYLLMEQLANYAIKRLFDKETFDNDPVLDDPLQITKRGLEYRAHSEQFKAFFRLPKEETLKEVHECFLWVPFSHFSSHGKMCISENYICFASQDGNLCSVIIPLREVLAIDKTDDSNRSVIISIKGKTAFRFSELKDFEQLVAKLRLKCRAASTQDDVSTEVAVSSDSTGPSENFEEQPLTCPKECSKTVNTEALMTVFHPQNLENLDSKMLKEKMKEQSWNILFSECGRGVSMFRTKKTRDLVVRGIPETLRGELWMLFSGAVNDMATNPGYYAEVVEQSLGTSNLATEEIERDLRRSLPEHPAFQSDTGISALRRVLTAYAYRNPKIGYCQAMNILTSVLLLYAKEEEAFWLLVAVCERMLPDYFNRRIIGALVDQAVFEELIRDHLPQLTDHMTDMTFFSSVSLSWFLTLFISVLPIESAVNVVDCFFYDGIKAILQLGLAILDYNLDKLLTCKDDAEAVTALNRFFDNVINKDSPLPSNVQQGSNISNEKSDHTKVDITDLIKESNEKYGSIRYEDIHSMRCRNRLYVIQTLEETTKQNVLRVVSQDVKMSLQELDELYVIFKKELFISCYWYLSCPGLKHHDPSLPYLEQYQIDCQQFRVLYHLLSPWAHSANRDSLALWTFRLLDENSDCLINFKEFSSAIDIMYNGSFTDKLKLLFKLHIPPAYTEVMSKTSSKGDELSTEELLYFSQLQVSKPADEKETESGRNSPEKGKGKIDIQAYLSQWQDELLKKEETIKDLPRMNQSQFIQFSKTLYNLFHEDPEEESLYQAIAIVTNLLLRMEEVGRKLHSPASSASTARDSGPSEGNAESSVKKDLPSPREEHQWSFAFEQILASLLNEPALVRFFERPLDLKAKLENAKSSQLRSRTKM
As to B7, the log2FC is recorded as -1.359 and the Class entry is reported as “Down”.

These data come from publication PMC11960969, “Mdga2 deficiency leads to an aberrant activation of BDNF/TrkB signaling that underlies autism-relevant synaptic and behavioral changes in mice” (PLOS Biology, 2025).
